Values joined by “and” are separate entries in the source; they are usually repeats but may differ in a detail not shown here. Identical values can stand only once.
Biological target: SARS-CoV-2 prototype receptor binding domain (residues 319-541) (SARS-CoV-2, UniProt P0DTC2 319-541)
Test: SPR

B1: equine angiotensin converting enzyme 2 (residues 19-615) (receptor)
chain: STTEDLAKTFLEKFNSEAEELSHQSSLASWSYNTNITDENVQKMNEAGARWSAFYEEQCKLAKTYPLEEIQNLTVKRQLQALQQSGSSVLSADKSKRLNEILNTMSTIYSTGKVCNPSNPQECLLLEPGLDAIMENSKDYNQRLWAWEGWRSEVGKQLRPLYEEYVVLKNEMARANNYEDYGDYWRGDYEAEGPSGYDYSRDQLIEDVERTFAEIKPLYEHLHAYVRAKLMDTYPSHINPTGCLPAHLLGDMWGRFWTNLYSLTVPFGQKPNIDVTDAMVDQSWDAKRIFEEAEKFFVSVGLPNMTQGFWENSMLTEPGDGRKVVCHPTAWDLGKGDFRIKMCTKVTMDDFLTAHHEMGHIQYDMAYAVQPYLLRNGANEGFHEAVGEIMSLSAATPNHLKAIGLLPPDFYEDSETEINFLLKQALTIVGTLPFTYMLEKWRWMVFKGEIPKEEWMKKWWEMKREIVGVVEPVPHDETYCDPAALFHVANDYSFIRYYTRTIYQFQFQEALCQTAKHEGPLHKCDISNSTEAGQKLLQMLSLGKSEPWTLALERIVGVKNMDVRPLLNYFEPLFTWLKDQNKNSFVGWSTNWSPYAD
In the case of B1, the Kd is reported as 87.7 nM and 200 nM.

— PMC9210341 (2022)
